Results published in the supplement of paper PMC7877785.
± gives the uncertainty stated by the source.

Experiment: self-splicing fitness, log relative to wild type (ln ratio); higher = more splicing; Tetrahymena group I intron in knt gene, E. coli kanamycin selection, DiMSum; sequences stand for … in CUCUCU…GGAGGGAAAAGUUAUCAGGCAUGCACCUGGUAGCUAGUCUUUAAACCAAUAGAUUGCAUCGGUUUAAAAGGCAAGACCGUCAAAUUGCGGGAAAGGGGUCAACAGCCGUUCAGUACCAAGUCUCAGGGGAAACUUUGAGAUGGCCUUGCAAAGGGUAUGGUAAUAAGCUGACGGACAUGGUCCUAACCACGCAGCCAAGUCCUAAGUCAACAGAUCUUCUGUUGAUAUGGAUGCAGUUCACAGACUAAAUGUCGGUCGGGGAAGAUGUAUUCUUCUCAUAAGAUAUAGUCGGACCUCUCCUUAAUGGGAGCUAGCGGAUGAAGUGAUGCAACACUGGAGCCGCUGGGAACUAAUUUGUAUGCGAAAGUAUAUUGAUUAGUUUUGGAGUACUCGUGGUCG
Method in brief: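 Six replicate transformations of E. coli BL21(DE3) with a pET-22b(+) library were grown overnight at 37°C or 30°C. The library randomised all eight P1ex-region intron nucleotides, the intron lying in the knt kanamycin-resistance gene, and plates were LB agar with or without 25 μg/mL kanamycin plus 100 μg/mL carbenicillin, 50 μM IPTG and 0.2% rhamnose. Pooled colonies were amplicon-sequenced on an Illumina HiSeq 2500, and fitness is the DiMSum error-weighted combination of wild-type-normalised replicate fold changes, kanamycin versus none.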

| Sequence | self-splicing fitness (ln) (30 °C) | self-splicing fitness (ln) (37 °C) |
| --- | --- | --- |
| GACAAGCAAUAUUACGAGUA | -2.1 ± 0.12 | -0.706 ± 0.098 |
| GACAAGCAAUAUUACGAUAC | -1.73 ± 0.094 | -1.28 ± 0.11 |
| GACAAGCAAUAUUACGAUGU | -1.66 ± 0.067 | -1.65 ± 0.11 |
| GACAAGCAAUAUUACGCAAU | -3.08 ± 0.15 | -1.58 ± 0.12 |
| GACAAGCAAUAUUACGCCGU | -2.93 ± 0.14 | -0.97 ± 0.12 |
| GACAAGCAAUAUUACGCGAG | -1.25 ± 0.11 | -2.03 ± 0.15 |
| GACAAGCAAUAUUACGCGAU | -2.96 ± 0.13 | -1.02 ± 0.099 |
| GACAAGCAAUAUUACGGACG | -1.75 ± 0.098 | -0.673 ± 0.12 |
| GACAAGCAAUAUUACGGAGC | -2.2 ± 0.09 | -1.65 ± 0.13 |
| GACAAGCAAUAUUACGGCGU | -0.596 ± 0.063 | -0.154 ± 0.08 |
| GACAAGCAAUAUUACGGGUA | -0.935 ± 0.066 | -0.82 ± 0.069 |
| GACAAGCAAUAUUACGGUGA | -1.3 ± 0.065 | -0.86 ± 0.086 |
| GACAAGCAAUAUUACGUAGU | -3.92 ± 0.18 | -1.65 ± 0.11 |
| GACAAGCAAUAUUACGUUGG | -3.26 ± 0.11 | -2.56 ± 0.14 |
| GACAAGCAAUAUUACGUUUA | -1.66 ± 0.084 | -1.58 ± 0.089 |
| GACCAGCAAUAUUACGACAA | -0.854 ± 0.099 | -0.621 ± 0.13 |
| GACCAGCAAUAUUACGAUCU | -0.841 ± 0.091 | -0.153 ± 0.1 |
| GACCAGCAAUAUUACGAUGG | -3.69 ± 0.19 | -2.82 ± 0.21 |
| GACCAGCAAUAUUACGCAGC | -0.913 ± 0.11 | -0.292 ± 0.13 |
| GACCAGCAAUAUUACGCCCU | -0.482 ± 0.11 | -0.286 ± 0.12 |
| GACCAGCAAUAUUACGCGCC | -0.0376 ± 0.14 | -0.617 ± 0.18 |
| GACCAGCAAUAUUACGCGGG | -3.03 ± 0.13 | -2.79 ± 0.19 |
| GACCAGCAAUAUUACGGCCC | -2.54 ± 0.24 | -1.98 ± 0.34 |
| GACCAGCAAUAUUACGGCCG | -0.246 ± 0.063 | 0.158 ± 0.093 |

| Sequence | self-splicing fitness (ln) (30 °C) | self-splicing fitness (ln) (37 °C) |
| --- | --- | --- |
| GACCAGCAAUAUUACGGGAC | -2.5 ± 0.092 | -1.03 ± 0.092 |
| GACCAGCAAUAUUACGGGUA | -0.533 ± 0.058 | -0.146 ± 0.061 |
| GACCAGCAAUAUUACGGGUU | -4.24 ± 0.21 | -2.53 ± 0.18 |
| GACCAGCAAUAUUACGGUUA | -0.367 ± 0.046 | -0.221 ± 0.056 |
| GACCAGCAAUAUUACGUGAA | -0.0938 ± 0.063 | 0.524 ± 0.089 |
| GACCAGCAAUAUUACGUGGU | -2.67 ± 0.095 | -3.29 ± 0.15 |
| GACCAGCAAUAUUACGUGUG | -0.363 ± 0.047 | -0.452 ± 0.058 |
| GACGAGCAAUAUUACGAAGG | -3.03 ± 0.19 | -2.52 ± 0.33 |
| GACGAGCAAUAUUACGACAG |  | -1.89 ± 0.23 |
| GACGAGCAAUAUUACGAGGU | -3.81 ± 0.28 | -2.38 ± 0.27 |
| GACGAGCAAUAUUACGAUUU | -0.943 ± 0.085 | -1.19 ± 0.098 |
| GACGAGCAAUAUUACGCAAA | -3.39 ± 0.27 | -1.96 ± 0.22 |
| GACGAGCAAUAUUACGCAGA | -3.74 ± 0.33 | -3.45 ± 0.42 |
| GACGAGCAAUAUUACGCCUA | -0.714 ± 0.32 |  |
| GACGAGCAAUAUUACGCGAG | -2.3 ± 0.17 | -2.85 ± 0.26 |
| GACGAGCAAUAUUACGCGGU | -4.23 ± 0.31 | -1.83 ± 0.2 |
| GACGAGCAAUAUUACGCUAG | -3.19 ± 0.19 | -2.47 ± 0.18 |
| GACGAGCAAUAUUACGGAAC | -1.3 ± 0.19 | -2.43 ± 0.35 |
| GACGAGCAAUAUUACGGAUC | -2.68 ± 0.39 | -1.75 ± 0.44 |
| GACGAGCAAUAUUACGGCAG | -2.04 ± 0.25 | -2.51 ± 0.38 |
| GACGAGCAAUAUUACGGCCG | -2.02 ± 0.25 | -0.723 ± 0.37 |
| GACGAGCAAUAUUACGGCGC | -1.79 ± 0.093 | -0.8 ± 0.11 |
| GACGAGCAAUAUUACGGCGU | -3.7 ± 0.32 | -1.9 ± 0.26 |
| GACGAGCAAUAUUACGGUAA | -3.65 ± 0.47 | -2.33 ± 0.33 |
